The values that follow come from patent publication US6306580A, “Preparation of human papillomavirus E1 having helicase activity and method therefor” (priority 1999, dated 2001).

Like-named read-outs stand apart in the source and are kept apart here.

For data set [1], the system named is partial duplex DNA substrate. Conditions: Yang, PNAS (1993), assayed at 32°; cited from earlier work.
Data set [2] has as its target HPV-11 E2 protein (human papillomavirus type 11) (UniProt P04015). Description: E2-dependent E1 DNA binding assay: E1/E2/ori complex with radiolabeled origin probe, captured with K72 antiserum on protein A-SPA beads, scintillation counting.
The target in data set [3] is T1, HPV-11 E1 helicase (Human papillomavirus 11, UniProt P04014).
T1 construct: made in house; host or cells: SF21 insect cells, recombinant baculovirus (Bac-to-Bac, pFASTBAC1)
In words: E1 helicase SPA high-throughput assay, inhibition (IC50 curves). Format: biochemical, human papillomavirus type 11. The source says:
In this assay, the duplex DNA substrate consists of M13 single-stranded DNA (about 8000 bases) to which is annealed a 19 base oligodeoxynucleotide (see FIG. 6). This partial duplex is extended to 24 bases with the incorporation of [^33 P]-labeled dATP by a reaction with the Klenow fragment of DNA polymerase I. Helicase activity results in the separation of this radiolabeled oligo from the M13 DNA. In the absence of a functional helicase, the double-stranded DNA substrate is stable for several hours at the assay temperature.
To detect activity, a second 24-base deoxyoligonucleotide, complementary to the substrate oligo, is added to the reaction mixture in a second step. […]
In the third step, streptavidin-coated SPA beads (Amersham Life Science, code TRKQ7030) are added to the mixture. […] Thus radiolabeled oligo annealed to the biotinylated oligo will be detected, whereas unreacted substrate still hybridized to M13 is not in close proximity to the beads and will not be detected.
In the presence of an inhibitor, less substrate is unwound, so a lower signal is detected. […] The M13 DNA competes with the labeled M13 substrate and inhibits the signal detected. […]
Assay buffer, used for all dilutions, consisted of 20 mM MES, pH 7.0, 10% glycerol, 1.0 mM DTT, and 0.05 mM EDTA. […] Sufficient E1 is used to give approximately 20% unwinding (as determined in Example 9). […]

The test system of data set [4] is partial duplex DNA substrate. Description: Helicase specific activity (unwinding of partial duplex DNA), this work. Type of data set: biochemical. To be noted: 37°, enzyme concentration greater than substrate. As to the method:
The substrate for the analytical helicase assay consisted of a […] oligonucleotide (GTAAAACGACCAGTGCCAAGC) (SEQ ID NO. 11) end-labeled using [^33 P]ATP and polynucleotide kinase, annealed to M13mp18. Combined helicase/ATPase reactions contained 800 or 1600 ng of E1, 2 mM MgCl2, 1 mM ATP, and 1 μM helicase substrate (concentration in nucleotides) in a total volume of 80 μL of helicase assay buffer (20 mM MES, pH 7.0, 1 mM DTT, 0.05 mM EDTA, 10% glycerol). Reactions were incubated for 2 h at 37° and then placed on ice. […]
Helicase activity was quantitated as follows:
A separate reaction mixture, containing no enzyme was heated to 95° for 10 min., and the resulting free substrate oligonucleotide (completely denatured) was detected as described for reaction mixtures. […] Quantitation of unwinding is calculated relative to the boiled sample with background subtracted.
In all cases the enzyme concentration was greater than the substrate concentration and the substrate was partial duplex DNA. […] The SV-40 TAg was also assessed in the literature and V of 50 and 80 % unwinding/μm protein/min were obtained from these groups respectively (Goetz, JBC (1988); Stahl, EMBO (1986)). […]

As for “BPV E1: bovine papillomavirus E1 helicase, literature value (Yang, PNAS 1993)”, the “Helicase Activity V (% unwinding/μM protein/min)” value in data set [1] is recorded as 2.9 % unwinding/μM protein/min.

Take “HPV-11 His-E1 protein (wild type) (enzyme)”: the signal over background (fold) in data set [2] lay within 20 to 30 fold. For the molecule `CC[n+]1c(-c2ccccc2)c2cc(N)ccc2c2ccc(N)cc21` [ethidium bromide], the IC50 in data set [3] is ~4 µM.

B1: HPV-6a E1: His-tagged E1 helicase of human papillomavirus type 6a purified according to the invention (SEQ ID NO.27) (protein)
chain: MADDSGTENEGSGCTGWFMVEAIVQHPTGTQISDDEDEEVEDSGYDMVDFIDDSNITHNSLEAQALFNRQEADTHYATVQDLKRKYLGSPYVSPINTIAEAVESEISPRLDAIKLTRQPKKVKRRLFQTRELTDSGYGYSEVEAGTGTQVEKHGVPENGGDGQEKDTGRDIEGEEHTEAEAPTNSVREHAGTAGILELLKCKDLRAALLGKFKECFGLSFIDLIRPFKSDKTTCLDWVVARFGIHHSISEAFQKLIEPLSLYAHIQWLTNAWGMVLLVLLRFKVNKSRSTVARTLATLLNIPENQMLIEPPKIQSGVAALYWFRTGISNASTVIGEAPEWITRQTVIEHGLADSQFKLTEMVQWAYDNDICEESEIAFEYAQRGDFDSNARAFLNSNMQAKYVKDCATMCRHYKHAEMRKMSIKQWIKHRGSKIEGTGNWKPIVQFLRHQNIEFIPFLTKFKLWLHGTPKKNCIAIVGPPDTGKSYFCMSLISFLGGTVISHVNSSSHFWLQPLVDAKVALLDDATQPCWIYMDTYMRNLLDGNPMSIDRKHKALTLIKCPPLLVTSNIDITKEDKYKYLHTRVTTFTFPNPFPFDRNGNAVYELSNTNWKCFFERLSSSLDIQDSEDEEDGSNSQAFRCVPGTVVRTL
modifications: His tag
With B1, the “Helicase Activity V (% unwinding/μM protein/min)” value in data set [4] is 2.3 % unwinding/μM protein/min.

B2: HPV-11 E1: His-tagged E1 helicase of human papillomavirus type 11, low-salt nuclear extraction, Ni affinity purified (SEQ ID NO.26) (protein)
chain: MADDSGTENEGSGCTGWFMVEAIVEHTTGTQISEDEEEEVEDSGYDMVDFIDDRHITQNSVEAQALFNRQEADAHYATVQDLKRKYLGSPYVSPISNVANAVESEISPRLDAIKLTTQPKKVKRRLFETRELTDSGYGYSEVEAATQVEKHGDPENGGDGEERDTGRDIEGEGVEHREAEAVDDSTREHADTSGILELLKCKDIRSTLHGKFKDCFGLSFVDLIRPFKSDRTTCADWVVAGFGIHHSIADAFQKLIEPLSLYAHIQWLTNAWGMVLLVLIRFKVNKSRCTVARTLGTLLNIPENHMLIEPPKIQSGVAALYWFRTGISNASTVIGEAPEWITRQTVIEHSLADSQFKLTEMVQWAYDNDICEESEIAFEYAQRGDFDSNARAFLNSNMQAKYVKDCAIMCRHYKHAEMKKMSIKQWIKYRGTKVDSVGNWKPIVQFLRHQNIEFIPFLSKLKLWLHGTPKKNCIAIVGPPDTGKSCFCMSLIKFLGGTVISYVNSCSHFWLQPLTDAKVALLDDATQPCWTYMDTYMRNLLDGNPMSIDRKHRALTLIKCPPLLVTSNIDISKEEKYKYLHSRVTTFTFPNPFPFDRNGNAVYELSDANWKCFFERLSSSLDIEDSEDEEDGSNSQAFRCVPGSVVRTL
modifications: His tag
For the molecule B2, in data set [4], the “Helicase Activity V (% unwinding/μM protein/min)” value was 2.5 % unwinding/μM protein/min.
